# Assay: soluble on expression in E. coli; label from the status in PepcDB or PDB records
row,Sequence,soluble on expression in E. coli
1,MERKISDEECPVRKSMQIFAGKWTLLIIFQINRRIIRYGELKRAIPGISEKMLIDELKFLCGKGLIKKKQYPEVPPRVEYSLTPLGEKVLPIIDEIAKFGMENL,soluble
2,MKIADGVYVHFIPTQKYKTNRIVFRMTGSLNKQTIAKRALVSQMLATANQTYPTVQSFKERLASLYGTQLSTKVSTKGLTHSVDIELTYLKDFFIPMNTSLFWEVLGFLMDCLYNPLSIVAQYQNKVFDIEKQNLMTYLDVDTENNYYYSEVQGRELYFVNEALKVPKYGRVELVEAETSFTAYQEFQSMLTKDRIDIFMVGEFDDYQVLRGLHRFPLEGRQVDLQFSYNQSYSKVVKEKIETRQTSQSILQLGYQFPCQYGDKDYFALIVFNGMLGEFAHSALFTKIREKEGLAYSIGSQFDAFTGLLEIYAGIEKSNRNQAMRGIIRELNHIKLGRFSSSLFNQTKKIIRMNALLSEDHALTLVEQHFNKVIFGDKKISLEDWLDKIEKVTKKDVCRIARQVKLQSLFFLEGVS,not soluble
3,MGSDKIHHHHHHMSFRSGVATFAGKSSYWFLHTFLHGGSSLPGKITLKLDPNILRTLGAKYDVIVITGTNGKTLTTALTVSVLHEKYPAILTNPTGSNMEQGIVTTFLNAKNPKTGRPLAVLEVDEANVIKVTHYIEPKAFVFTNIFRDQMDRYGEIYTTYQKILDGVALAPKATIIANGDSPIFNSKELPNPIQYYGFDNEPDTDMKAKPNTDGVLCPVCQHILHYHSLTYSNQGKYFCPNCGFARPELTYRLTALGEQTPTSSHFDVDGHPFTIQVGGTYNIYNALAAYAVGRFMGVAPEQIAHAFTANERVFGRQEVINVGDKRVTIILVKNPVGLDQVLHMIGTDKEQFSFVALLNANYADGIDTSWIWDGDFEQLTALDIPTFITGGERYKDITFRLKVAGVPDDQHIVEPDLEKVVDRITDLPTERVYVLATYTAMLQLRKILATKGYIKEGFGA,not soluble
4,MSLRRSKATDHQAAGPSPGPRDAFRPASVDEDVPAAVGRLLDRFLAERVARAAALDPVFAHDIAERVARFTLDGGKRTRSQFVWWAHRACGGPAAGAEAALRVGAALELIQTCALVHDDVMDGSRLRRGRPALHTDVSAQYADAVLPAPGTRFGEAAAILAGDLALAWADDVVADTDLAPDPGRRVREVWSCLRMEMVAGQYLDIQGQATSSHSEARAMRAACLKSALYSVQRPLELGAALAGADTATTQALCSAGRCVGLAFQLRDDLHDVFEEPRRTGKPSGGDIRAGKPTYLVAVARARAEAAGDRGALAVLRRSLGCADLSDADLARVRDVLVTTGARDTVEAEIDRLVAQGLRHMGAASLAPEGRRHLDALLRSAAGAPSVRRQAPDASRSENGMPVSLLLTATAEGAPEKGIITITTDPNSSSVDKLAAALEHHHHHH,soluble
5,DMIVRQAGPADAAAMSAVLHPILTGWNSARSGDAETVLTRYIDDPDRLSCAVACEGERILGFQSLKLARAGNVYDLPAGWGIIGTYVAGDAGRRGIGRALFTETLAAARRAGLAHIDATIGADNAQGLPYYSALGFQTWRELDG,not soluble
6,MGSDKIHHHHHHMYDNDLWFATINLPYRQKLELLRIYKTSDEILYNFKNSELIQKYKFDIEKINYIKDEMKKSGMKIVFWNDDDYPKVLKNYDDMPYGLFYMGNIKKLNELNYNVAIVGSRRCTQYGKDITTIISREISINGIGIISGMARGIDTYAHKICLENNGYTCAVLGCGADVIYPKENKNLYCQIIRNGCIISQYKPNTKPLPYNFPIRNKIISGLSNLVLVTEADIKSGSIITASSALEQGKDVGAVPGSVFSKMSRGTNKLIQDGAHVIKDIDDVFGILNFQKINFKKIRNNSSYSSMPENQRQIYDLVSDKPIHVDDIKRCLNIDIQELYELLFEMQLKNKILCLSGSYYVRVNDCL,not soluble
7,MSLNPMIAKQKPNGNIQCLVCNAEIKPKIWTAHVNGKKHRDSIEKLKTSAQKRGKESSTRNTDEPPNKKQKEVPNQGPTTLPTDFFDDESTPFRKDDSKTATVGHNSNLIEGVPAGFFDDKRLDGNVRETRERNAELDAEYERWKEEIGEEQVELDTKAEELEAAVQRELELERIDEQMAALKKLNDMEIQKEKRLNQARERRLKREEPEEEEDDDGEDIDLDALDWRAKNIFA,not soluble
8,MGHHHHHHSHDFIPRGAFGKVYLAQDIKTKKRMACKLIPVDQFKPSDVEIQACFRHENIAELYGAVLWGETVHLFMEAGEGGSVLEKLESCGPMREFEIIWVTKHVLKGLDFLHSKKVIHH,not soluble
9,MGHHHHHHSHLRYMKESQVLLTLTNPVENLTHVTLFECEEGDPDDINSTAKVVVPPKELVLAGKDAAAEYDELAEPQDFQDDPDIIAFRKANKVGIFIKVTPQREEGEVTVCFKMKHDFKNLAAPIRPIEESDQGTEVIWLTQHVELSLGPLLP,soluble
10,EGIRQGVLKTAQNGNGNLIYLTGGMATVDHGAFHQGKFLTLKMDDSEVVRALPDVKSVAPTAKWKERITVGDRSSWQEPLAVTSEFQSMTNLVPMAGGRWLNPLDQKETRKVVVLGYELAADLFNPNEDFSWFATVTLQVNPVGKKVKIGNEEFTVVGVLEKNSAQIELGDLINYSSFVPLATWKRFHVNGEIGGINVQPQADVDREALAKTIRQVIARKHGASVNDEQVVQVDDMFLKQKSMQQFLIGLQS,not soluble
11,MAITLKTYAYTINRVLYFHTFVKFLFSNLVSFDTFEEIGNDVAVIVFLEHSFTRSHEKRHVCRESLLLSSCNNKLSRIHGLSERISKRYQKPSRGDIVVIRSPENPNKTPIKRVVGVEGDCISFVIDPVKSDESQTIVVPKGHVFVQGDYTHNSRDSRNFGPVPYGLIQGRVLWRDNTTGIVTQVVLDTALLRETTNGLRIKTYQGGSGYVQGIRFTNVEMQDTSAVKISHIMYRNITKSAKAIKFACSDTVPCSHIVLNNVNLEGKDGQVEAYCNSAEGFGYGVYSHNDKGLDQTHKSEEAETGHDEL,soluble
12,MAILAFDLGGSSVKYGVWTGKELTNQGSFPTPGSWEEMKAHLYSVYADKRNESISGVAFSSPGVVDEKSQQILGISAIPYIHHFNIYEELEALFGLPVTIENDANCAGLAEIYEGAAKGKKEVLFVVIGTGIGGAIFRNGELYKGAHLYGGEFGLNFLSNGQTFSEIGTAVKMAQRYCERIGVEKQAVTGEEVFELAQRGDEIAREEVNNFYDYLTQGLFGLQFSYDPEMIVLGGGVSAKEGLLAEINRRMLTHLQTFELKDFVPEIVTCHYQNDANLIGAAANFQAKTNWEL,not soluble
13,MAHHHHHHMGQGLTGGAMAGAALSITALPLRLTLADHLGICGAATACGLALDFASDCCSKEGRVIIHRDVLLKAQDPLRHLSTFYTTCESNRMARLFRQKHEWVVLESHGQQYYVVQKNPATGDVLMDVRNSLRAANDVGLQVAGKPMHTGEIRQHRMETEFDLPSDLQVAYVIAWLRKEDPRWAFSTENSRQFTARVRYALMDF,not soluble
14,MHHHHHHSSGVDLGTENLYFQSMSFAVGMFKGQLTTDQVFPYPSVLNEEQTQFLKELVEPVSRFFEEVNDPAKNDALEMVEETTWQGLKELGAFGLQVPSELGGVGLCNTQYARLVEIVGMHDLGVGITLGAHQSIGFKGILLFGTKAQKEKYLPKLASGETVAAFCLTEPSSGSDAASIRTSAVPSPCGKYYTLNGSKLWISNGGLADIFTVFAKTPVTDPATGAVKEKITAFVVERGFGGITHGPPEKKMGIKASNTAEVFFDGVRVPSENVLGEVGSGFKVAMHILNNGRFGMAAALAGTMRGIIAKAVDHATNRTQFGEKIHNFGLIQEKLARMVMLQYVTESMAYMVSANMDQGATDFQIEAAISKIFGSEAAWKVTDECIQIMGGMGFMKEPGVERVLRDLRIFRIFEGTNDILRLFVALQGCMDKGKELSGLGSALKNPFGNAGLLLGEAGKQLRRRAGLGSGLSLSGLVHPELSRSGELAVRALEQFATVVEAKLIKHKKGIVNEQFLLQRLADGAIDLYAMVVVLSRASRSLSEGHPTAQHEKMLCDTWCIEAAARIREGMAALQSDPWQQELYRNFKSISKALVERGGVVTSNPLGF,soluble
